The text below walks through data of US20200325237A1 (AVIDITY BIOSCIENCES, published 2020).

For orientation: Kd means the equilibrium constant for the complex coming apart. By koff is commonly meant the first-order rate constant of dissociation. A low value points to a long-lived complex. The kon is a measure of how fast the partners come together.

The target of test [1] is T1, hTfR (human transferrin receptor, source and construct not stated) (human, UniProt P02786 89-760, limits assumed). Put plainly: SPR (BioRad ProteOn XPR36), mAb captured on Protein A, hTfR as analyte, 25 C. On the procedure:
The binding kinetics of nine exemplary humanized anti-TfR antibodies and the parent chimeric antibody were characterized. Studies were run on a BioRad ProteOn XPR36 optical biosensor using a GLM sensor chip coated with Protein A for mAb capture. Running buffer included 10 mM EPES, 150 mM NaCl, pH 7.4 with 0.05 tween-20 with 0.2 mg/ml BSA. Data were collected at 25 degrees C. All mAbs were diluted into running buffer to 2 ug/ml based on the stock concentration provided. Each was then captured for 40 seconds over a Protein A surface.
hTfR (100 ug) was dissolved into […] of water to yield a 4.3 uM stock concentration. hTfR was dilted to 43 nM as the highest concentration and tested in a 3 fold dilution series. hTfR was injected at 200 ul/min for 2 minutes followed by a one-hour dissociation phase.

Test [2] deals with T2, recombinant human transferrin receptor protein (Sino Biological 11020-H07H) (human, UniProt P02786 89-760).
T2 construct: Bought protein coated on ELISA plates; also called recombinant human TfR1; human TfR1
In words: ELISA on plate-coated recombinant human TfR1 (CD71); fit: specific binding with Hill slope (row labels blank in the lower block; row taken by the order Bmax, h, Kd). On the procedure:
(§1) Half-well high-binding 96-well plates (Costar #3690) were coated with recombinant human transferrin receptor protein (Sino Biological 11020-H07H) or recombinant cyno transferrin receptor protein (Sino Biological 90253-C07H) at 1 ng/μL in PBS (Gibco 14190) and incubated overnight at 4° C. Plates were washed four times with 100 μL of Tris buffered saline+Tween (20×TBST, Cell Signaling 9997S). 100 μL of Superblock (ThermoFisher PI-37535) was added to each well and incubated for 1 hour at room temperature. The wash step was repeated before the addition of the samples. Samples were added at concentrations up to 10 nM, 50 μL/well. Plates were incubated for another hour at room temp and wash step repeated. Secondary antibody (Peroxidase AffiniPure Goat Anti-Human IgG, Fcγ Fragment Specific, Jackson Immunoresearch, 109-035-098) was diluted 1:5000 in Superblock and 50 μL/well added. Plates were incubated for 1 hour at room temperature and washed one more time. Binding was measured by the addition of 50 μL of 1-Step™ Ultra TMB-ELISA (ThermoFisher, 34028), incubated for 5 minutes, and the reaction was stopped with the addition of 25 μL of Stop Solution 2N sulfuric Acid (R&D Systems DY994). Absorbance was measured at 450 nm, with reference wavelength 570 nm subtracted. Binding constants were determined using GraphPad Prism Specific Binding with Hill Slope.
A general note: ELISA stands for enzyme-linked immunosorbent assay.

For test [3], the target named is T1, hTfR (human transferrin receptor, …). Put plainly: ELISA; ratio of the Kd on HFE-captured hTfR to the Kd on directly coated hTfR.
For test [4], the target named is T3, recombinant cyno transferrin receptor protein (Sino Biological 90253-C07H) (cyno, UniProt H9EXL1 89-760 (rhesus entry)).
T3 construct: Bought protein coated on ELISA plates; also called recombinant cyno TfR1; cynoTfR1
In words: ELISA on plate-coated recombinant cyno TfR1 (CD71); fit: specific binding with Hill slope. How it is done:
as §1

Test [5] addresses T1, hTfR (human transferrin receptor, …). Put plainly: ELISA, biotinylated antibody on hTfR captured by plate-coated human holo-transferrin (Tf+TfR); fit: specific binding with Hill slope. On the procedure: (§2) Antibodies were biotinylated using 50 fold molar excess of EZ-Link No weigh NHS-Biotin (Thermo Scientific A39256) following manufacturer's instructions. Half-well high-bind plates (Costar #3690) were coated with 500 ng/mL purified human holo-transferrin (R&D Systems 2914-HT) in PBS at 4° C. overnight. For comparison, plates were coated directly with hTfR. Plates were washed four times with 100 μL of Tris buffered saline+Tween (20×TBST, Cell Signaling 9997S). 100 μL of Superblock (ThermoFisher PI-37535) was added to each well and incubated for 1 hour at room temperature. The wash step was repeated before the addition of the hTfR (200 ng/mL in 25 μl) to the transferrin plates, or Superblock to the hTfR plates, and incubated for 30 minutes. Biotinylated antibodies were diluted to 20 nM for the high concentration and added to the plates with 3-fold serial dilution. 25 μl/well was added to the 25 μl already in the plate. Plates were incubated for 1 hour, and wash step was repeated. Streptavidin-HRP (R&D Systems DY998) was added following recommended dilution on the package insert, and a final wash step was done. Binding was measured by the addition of 50 μL of 1-Step™ Ultra TMB-ELISA (ThermoFisher, 34028), incubated for 5 minutes, and the reaction was stopped with the addition of 25 μL of Stop Solution 2N sulfuric Acid (R&D Systems DY994). Absorbance was measured at 450 nm, with reference wavelength 570 nm subtracted. Binding constants were determined using GraphPad Prism Specific Binding with Hill Slope. Change in antibody binding constants in the presence versus absense of transferrin is considered relative to the commercially available antibody which is known to have an overlapping epitope with transferrin (AF2474, R&D Systems).

The target in test [6] is T4, TfR2 (transferrin receptor 2) (UniProt Q9UP52 105-801, limits assumed).
T4 sequence (looked up): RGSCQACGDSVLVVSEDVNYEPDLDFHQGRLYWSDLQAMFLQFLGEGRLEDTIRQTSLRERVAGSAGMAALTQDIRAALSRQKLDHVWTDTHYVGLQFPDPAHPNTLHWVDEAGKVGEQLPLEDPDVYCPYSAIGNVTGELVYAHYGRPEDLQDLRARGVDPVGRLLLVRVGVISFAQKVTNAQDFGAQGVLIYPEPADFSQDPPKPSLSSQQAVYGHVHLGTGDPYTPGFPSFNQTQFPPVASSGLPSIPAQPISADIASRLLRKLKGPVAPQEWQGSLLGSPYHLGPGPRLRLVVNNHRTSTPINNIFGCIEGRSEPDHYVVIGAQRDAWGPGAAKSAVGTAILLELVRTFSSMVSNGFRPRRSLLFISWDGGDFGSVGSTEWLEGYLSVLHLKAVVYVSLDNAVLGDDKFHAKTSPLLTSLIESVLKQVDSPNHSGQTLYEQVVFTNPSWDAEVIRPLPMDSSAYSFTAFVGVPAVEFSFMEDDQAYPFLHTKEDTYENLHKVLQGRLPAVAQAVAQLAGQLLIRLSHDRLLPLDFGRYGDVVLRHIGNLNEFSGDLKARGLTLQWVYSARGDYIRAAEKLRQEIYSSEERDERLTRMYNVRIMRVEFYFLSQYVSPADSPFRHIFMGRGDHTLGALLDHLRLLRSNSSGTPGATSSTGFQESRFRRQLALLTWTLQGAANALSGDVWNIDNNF
Put plainly: A450 plate assay on TfR2 (method not described in the text).

Test [7] deals with T1, hTfR (human transferrin receptor, …). In words: ELISA, biotinylated antibody on hTfR captured by plate-coated HFE (HFE+TfR); fit: specific binding with Hill slope.
For test [8] the target is unchanged. Put plainly: ELISA; ratio of the Kd on transferrin-captured hTfR to the Kd on directly coated hTfR. How it is done: as §2

T2 sequence (P02786 89-760 limits assumed): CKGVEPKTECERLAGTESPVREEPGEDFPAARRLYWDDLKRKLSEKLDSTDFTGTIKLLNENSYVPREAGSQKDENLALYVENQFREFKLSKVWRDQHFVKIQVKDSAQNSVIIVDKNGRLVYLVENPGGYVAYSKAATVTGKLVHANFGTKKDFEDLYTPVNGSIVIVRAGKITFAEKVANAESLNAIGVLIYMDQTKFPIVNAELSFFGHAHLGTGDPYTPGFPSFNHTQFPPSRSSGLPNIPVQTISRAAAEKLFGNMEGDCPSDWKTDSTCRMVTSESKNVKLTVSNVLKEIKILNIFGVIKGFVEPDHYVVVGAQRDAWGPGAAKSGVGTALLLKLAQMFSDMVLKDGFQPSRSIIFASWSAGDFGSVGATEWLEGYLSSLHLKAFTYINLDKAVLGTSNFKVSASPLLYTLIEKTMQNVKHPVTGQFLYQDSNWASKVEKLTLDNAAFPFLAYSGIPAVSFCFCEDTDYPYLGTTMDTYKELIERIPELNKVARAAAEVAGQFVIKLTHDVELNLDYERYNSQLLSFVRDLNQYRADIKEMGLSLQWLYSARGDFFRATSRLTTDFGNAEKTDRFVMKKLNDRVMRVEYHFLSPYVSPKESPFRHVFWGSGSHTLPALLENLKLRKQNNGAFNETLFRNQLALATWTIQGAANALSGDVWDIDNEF
T1 sequence (P02786 89-760 limits assumed): as above
T3 sequence (chain, as listed by the source C07H C07H): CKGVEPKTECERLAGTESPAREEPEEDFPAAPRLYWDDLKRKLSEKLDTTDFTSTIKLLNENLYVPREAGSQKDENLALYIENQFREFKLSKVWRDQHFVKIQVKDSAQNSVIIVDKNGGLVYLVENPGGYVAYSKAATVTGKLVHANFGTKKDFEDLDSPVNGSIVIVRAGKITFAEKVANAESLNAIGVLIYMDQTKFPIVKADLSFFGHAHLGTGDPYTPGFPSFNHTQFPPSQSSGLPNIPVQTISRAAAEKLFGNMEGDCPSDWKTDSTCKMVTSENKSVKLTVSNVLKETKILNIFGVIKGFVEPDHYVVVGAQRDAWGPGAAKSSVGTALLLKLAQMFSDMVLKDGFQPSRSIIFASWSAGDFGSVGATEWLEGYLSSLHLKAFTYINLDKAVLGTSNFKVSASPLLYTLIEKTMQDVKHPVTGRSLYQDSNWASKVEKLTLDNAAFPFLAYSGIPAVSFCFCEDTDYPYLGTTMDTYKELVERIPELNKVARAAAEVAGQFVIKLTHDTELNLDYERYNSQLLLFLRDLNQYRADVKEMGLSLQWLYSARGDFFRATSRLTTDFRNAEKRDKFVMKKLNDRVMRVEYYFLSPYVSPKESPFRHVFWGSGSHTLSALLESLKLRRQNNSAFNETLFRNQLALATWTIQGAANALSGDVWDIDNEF

B1: 13E4-Variant 9ii (antibody, human IgG1, kappa, L234A L235A)
heavy: QVQLVQSGAEVKKPGASVKVSCKASGYTFTNYWMHWVRQAPGQGLEWMGEINPINGRSNYAQKFQGRVTLTVDTSISTAYMELSRLRSDDTAVYYCARGTRAMHYWGQGTLVTVSSASTKGPSVFPLAPSSKSTSGGTAALGCLVKDYFPEPVTVSWNSGALTSGVHTFPAVLQSSGLYSLSSVVTVPSSSLGTQTYICNVNHKPSNTKVDKRVEPKSCDKTHTCPPCPAPEAAGGPSVFLFPPKPKDTLMISRTPEVTCVVVDVSHEDPEVKFNWYVDGVEVHNAKTKPREEQYNSTYRVVSVLTVLHQDWLNGKEYKCGVSNKALPAPIEKTISKAKGQPREPQVYTLPPSREEMTKNQVSLTCLVKGFYPSDIAVEWESNGQPENNYKTTPPVLDSDGSFFLYSKLTVDKSRWQQGNVFSCSVMHEALHNHYTQKSLSLSPG
light: DIQMTQSPSSLSASVGDRVTITCRTSENIYNNLAWYQQKPGKAPKLLIYAATNLAEGVPSRFSGSGSGTDYTLTISSLQPEDFATYYCQHFWGTPLTFGGGTKVEIKRTVAAPSVFIFPPSDEQLKSGTASVVCLLNNFYPREAKVQWKVDNALQSGNSQESVTEQDSKDSTYSLSSTLTLSKADYEKHKVYACEVTHQGLSSPVTKSFNRGEC
notes: Humanized hIgG1 with Fc mutations; also called hIgG1 TfR-Var9ii
As for B1, in test [1], binding was put at a Kd of 2.31 pM, the dissociation rate constant (koff) is 1.81e-06 s⁻¹ and the kon was 784000 M⁻¹ s⁻¹. Besides, in test [2], the Bmax was 95.2 % max binding, the dissociation constant (Kd) was 0.00823 nM and the h is 1.57. In addition, the “Kd(HFE+TfR)/Kd(TfR)” value in test [3] stood at 10.4. In addition, in test [4], the Bmax stood at 94.3 % max binding, the Kd is 0.0114 nM and the h is 1.74. In addition, in test [5], the Bmax is 3.51 A450, binding was put at a Kd of 0.057 nM and the h amounted to 1.48. The binding result in test [6] is “no binding (tested: 1000 nM)”. Besides, in test [7], the Bmax was 3 A450, binding was put at a Kd of 0.229 nM and the h worked out at 1.36. For the same molecule, the “Kd(Tf+TfR)/Kd(TfR)” value in test [8] came to 2.6.

B2: 13E4-Variant 9iii (antibody, human IgG1, kappa, L234A L235A)
heavy: QVQLVQSGAEVKKPGASVKVSCKASGYTFTNYWMHWVRQAPGQGLEWMGEINPINGRSNYAQKFQGRVTLTVDTSISTAYMELSRLRSDDTAVYYCARGTRAMHYWGQGTLVTVSSASTKGPSVFPLAPSSKSTSGGTAALGCLVKDYFPEPVTVSWNSGALTSGVHTFPAVLQSSGLYSLSSVVTVPSSSLGTQTYICNVNHKPSNTKVDKRVEPKSCDKTHTCPPCPAPEAAGGPSVFLFPPKPKDTLMISRTPEVTCVVVDVSHEDPEVKFNWYVDGVEVHNAKTKPREEQYNSTYRVVSVLTVLHQDWLNGKEYKCKVSNKARPAPIEKTISKAKGQPREPQVYTLPPSREEMTKNQVSLTCLVKGFYPSDIAVEWESNGQPENNYKTTPPVLDSDGSFFLYSKLTVDKSRWQQGNVFSCSVMHEALHNHYTQKSLSLSPG
light: DIQMTQSPSSLSASVGDRVTITCRTSENIYNNLAWYQQKPGKAPKLLIYAATNLAEGVPSRFSGSGSGTDYTLTISSLQPEDFATYYCQHFWGTPLTFGGGTKVEIKRTVAAPSVFIFPPSDEQLKSGTASVVCLLNNFYPREAKVQWKVDNALQSGNSQESVTEQDSKDSTYSLSSTLTLSKADYEKHKVYACEVTHQGLSSPVTKSFNRGEC
notes: Humanized hIgG1 with Fc mutations; also called hIgG1 TfR-Var9iii
In test [1], B2 had a Kd of 5.27 pM, a koff of 4.17e-06 s⁻¹ and an on-rate constant (kon) of 791000 M⁻¹ s⁻¹. Further, in test [2], the Bmax was found to be 93.8 % max binding, the dissociation constant Kd stood at 0.012 nM and the h is 1.56. Further, in test [3], the “Kd(HFE+TfR)/Kd(TfR)” value was found to be 11.4. In addition, in test [4], the Bmax worked out at 94 % max binding, the Kd came to 0.0137 nM and the h amounted to 1.74. For the same molecule, in test [5], the Bmax is 3.53 A450, the Kd was determined as 0.0546 nM and the h worked out at 1.49. Further, the binding result in test [6] is listed as “no binding (tested: 1000 nM)”. In test [7], this molecule returned a Bmax of 3.14 A450, a dissociation constant Kd of 0.248 nM and a h of 1.38. The “Kd(Tf+TfR)/Kd(TfR)” value in test [8] is 2.5.
